Reference: US20080292619A1, “Pharmaceutical Composition Containing Meltrin Antagonist” (MOCHIDA PHARMACEUTICAL CO., LTD., priority 2004, published 2008)

Molecular target: T1, meltrin α (Homo sapiens, UniProt O43184, E208G/T209S)
T1 construct: had been converted to mature meltrin α having the prodomain deleted (molecular weight 68 kDa); made in house; host or cells: COS-1
T1 sequence (O43184 208-738 isoform O43184-2 E208G/T209S): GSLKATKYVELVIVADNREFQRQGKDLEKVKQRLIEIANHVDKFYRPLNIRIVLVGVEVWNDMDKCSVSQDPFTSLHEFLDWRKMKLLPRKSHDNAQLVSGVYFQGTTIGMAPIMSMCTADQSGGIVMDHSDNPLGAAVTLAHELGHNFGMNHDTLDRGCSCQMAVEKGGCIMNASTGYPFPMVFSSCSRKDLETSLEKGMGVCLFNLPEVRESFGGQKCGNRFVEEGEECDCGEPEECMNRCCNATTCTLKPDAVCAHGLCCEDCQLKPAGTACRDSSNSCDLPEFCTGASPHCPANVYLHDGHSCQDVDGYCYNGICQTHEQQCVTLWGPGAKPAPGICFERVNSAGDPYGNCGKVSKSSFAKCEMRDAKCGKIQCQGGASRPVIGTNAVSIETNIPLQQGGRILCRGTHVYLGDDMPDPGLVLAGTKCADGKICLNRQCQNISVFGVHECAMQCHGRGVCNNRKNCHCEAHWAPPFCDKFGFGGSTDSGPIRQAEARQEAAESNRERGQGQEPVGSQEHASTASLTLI
Test: Inhibition of protease activity of meltrin α (rhIGF-BP3 cleavage, western blotting)
Assay type: biochemical
Conditions: antibody 300 μg/mL; rhIGF-BP3 band
Experimental: Thrombin (Amersham Biosciences) was added to the purified meltrin α-STFLAG prepared in Example 5, and mixture was kept at 25° C. for 15 hours. When the solution after the reaction was examined by repeating the procedure of Example 5, the human meltrin α containing the prodomain (molecular weight 92 kDa) had been converted to mature meltrin α having the prodomain deleted (molecular weight 68 kDa). For measuring the enzymatic activity of the meltrin α, the solution after the prodomain cleavage with thrombin followed by inactivation of the thrombin by 10 mM APMSF (Wako Pure Chemical Industries, Ltd.) was used. The disappearance of the thrombin activity was confirmed by using the synthetic substrate for the thrombin on the reaction solution. […]
The anti-human meltrin α antibodies produced in Examples 6 and 7 were evaluated on their activity for inhibiting protease activity of meltrin α by using the protease activity assay system of Example 9. […] After the reaction, the reaction solution was electrophoresed by SDS-PAGE, and the rhIGF-BP3 was detected by western blotting.
According to the method of Example 9, activity of the low molecular weight compound for inhibiting protease activity of the meltrin α was assayed as described below. […] After the reaction, the reaction solution was electrophoresed by SDS-PAGE, and the rhIGF-BP3 was detected by western blotting.

B1: F1196-113-1: anti-meltrin α monoclonal antibody clone (antibody, V domains shown)
VH: EVKLLESGGGLVQPGGSLKLSCAASGFDFSRYWMSWVRQAPGKGLEWIGEINPDSSTINYTPSLKDKFIISRDNAKNTLYLHMSKVRSEDTALYYCARPDSYYRYYAMDYWGQGTSVTVSSAKTTA
VL: DIQMTQTTSSLSASLGDRVTISCRASQDISNYLNWYQQKPDGTVKLLIYYTSRLHSGVPSRFSGSGSGTDYSLTISNQEQEDIATYFCQQGNTLPYTFGGGTKLEIKR
  activity for inhibiting protease activity of meltrin α: inhibitory activity for the meltrin α protease activity has been confirmed
